Results on four substances are retold here after article PMC6669086.

As a reminder, the Kd is the concentration at which binding is half-saturated. By Ki is commonly meant a dissociation constant, usually derived from enzyme kinetics or from competition with a known ligand.

Like-named read-outs stand apart in the source and are kept apart here.

For assay [1], the target named is Atto532-tUI (UniProt Q9UMX0). Put plainly: other fluorescence titration.
A further assay deals with tUI (UniProt Q9UMX0). The assay can be described thus: other fluorescence titration.
Assay [2] has as its target Atto532-tUI (UniProt Q9UMX0). Put plainly: stopped-flow fluorescence kinetics.
Assay [3] concerns the target ubiquitin (Homo sapiens) (UniProt P0CG48). The note with it: cited from earlier work.
Assay [4] shares this target. The note with it: cited from earlier work. This is another data set of the same source.

IsoT BUZ BUZ, sequence (P45974 173-289): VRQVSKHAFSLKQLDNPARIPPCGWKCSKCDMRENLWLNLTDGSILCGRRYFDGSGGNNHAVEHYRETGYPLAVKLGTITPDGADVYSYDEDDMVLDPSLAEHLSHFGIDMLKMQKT
Nedd8, sequence (Q15843 1-76): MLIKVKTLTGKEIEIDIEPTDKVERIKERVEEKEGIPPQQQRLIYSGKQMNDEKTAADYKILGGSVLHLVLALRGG
Rabex5 RUZ RUZ, sequence (Q9UJ41 13-47): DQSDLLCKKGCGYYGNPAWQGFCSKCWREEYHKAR

On to “ubiquitin (free Ub) (from UniProt P0CG48 1-76) (natural protein)”, for which the Kd in the assay with Atto532-tUI [1] stood at 0.066 nM; in the assay with Atto532-tUI [2] it was 0.0564 nM. Further, the Ki with tUI came out at 0.194 nM.

The substance “Nedd8 (from UniProt Q15843 1-76) (natural protein)” displayed a fold higher affinity for Ub than Nedd8 with Atto532-tUI [1] of 120 fold.

For the substance Rabex5 RUZ RUZ (from UniProt Q9UJ41), in the assay with ubiquitin (Homo sapiens) [3], the dissociation constant Kd was 12000 nM.

With IsoT BUZ BUZ (from UniProt P45974), in the assay with ubiquitin (Homo sapiens) [4], the Kd was 3000 nM.
